Source: patent US20120114667A1
One block for each substance: values may come before it.

Experiments:
[1] = biological target: β1 integrin chain on HT29 cells (α5 null line) (human) (UniProt P05556); assay: FACS on HT29 cells, positive control
[2] = biological target: macaque β1 integrin chain on T cells (Macaque); assay: FACS on macaque PBMC, control antibody
[3] = biological target: β1 integrin chain on HT29 cells (α5 null line) (human) (UniProt P05556); assay: FACS on HT29 cells, isotype control
[4] = biological target: human α5β1 integrin (human) (UniProt P08648); assay: FACS on human α5β1-transfected 300.19 cells, negative control
Chain of human α5β1 integrin (human) (P08648 42-1049, chain 1 of 2): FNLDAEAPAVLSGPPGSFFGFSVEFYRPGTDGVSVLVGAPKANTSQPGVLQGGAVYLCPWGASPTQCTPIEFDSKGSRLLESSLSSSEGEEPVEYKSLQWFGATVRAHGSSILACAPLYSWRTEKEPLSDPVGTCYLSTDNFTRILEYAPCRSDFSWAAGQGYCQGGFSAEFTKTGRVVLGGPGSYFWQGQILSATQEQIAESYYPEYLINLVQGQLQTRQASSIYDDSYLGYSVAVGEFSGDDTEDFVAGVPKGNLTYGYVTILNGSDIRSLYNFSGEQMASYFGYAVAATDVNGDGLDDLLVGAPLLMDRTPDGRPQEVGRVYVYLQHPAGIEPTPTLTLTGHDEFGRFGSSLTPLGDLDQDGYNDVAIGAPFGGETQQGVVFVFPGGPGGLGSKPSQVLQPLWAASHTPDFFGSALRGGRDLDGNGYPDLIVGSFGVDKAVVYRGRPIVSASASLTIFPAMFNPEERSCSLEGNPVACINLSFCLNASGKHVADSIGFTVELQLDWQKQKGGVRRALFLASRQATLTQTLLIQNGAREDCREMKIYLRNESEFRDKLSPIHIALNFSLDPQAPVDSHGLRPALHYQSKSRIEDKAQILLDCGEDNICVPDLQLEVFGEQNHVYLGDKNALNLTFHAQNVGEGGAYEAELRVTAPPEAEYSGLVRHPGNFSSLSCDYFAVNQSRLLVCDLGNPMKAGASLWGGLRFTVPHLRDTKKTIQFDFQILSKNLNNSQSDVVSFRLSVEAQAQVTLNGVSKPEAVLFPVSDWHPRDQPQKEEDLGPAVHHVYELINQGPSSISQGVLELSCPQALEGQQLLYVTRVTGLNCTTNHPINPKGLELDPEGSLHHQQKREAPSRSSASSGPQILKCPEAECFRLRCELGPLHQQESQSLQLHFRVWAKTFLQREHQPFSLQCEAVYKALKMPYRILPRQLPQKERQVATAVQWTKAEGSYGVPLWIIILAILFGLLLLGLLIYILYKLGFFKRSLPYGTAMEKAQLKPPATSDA
Chain of human α5β1 integrin (human) (P05556 21-798, chain 2 of 2, further chain): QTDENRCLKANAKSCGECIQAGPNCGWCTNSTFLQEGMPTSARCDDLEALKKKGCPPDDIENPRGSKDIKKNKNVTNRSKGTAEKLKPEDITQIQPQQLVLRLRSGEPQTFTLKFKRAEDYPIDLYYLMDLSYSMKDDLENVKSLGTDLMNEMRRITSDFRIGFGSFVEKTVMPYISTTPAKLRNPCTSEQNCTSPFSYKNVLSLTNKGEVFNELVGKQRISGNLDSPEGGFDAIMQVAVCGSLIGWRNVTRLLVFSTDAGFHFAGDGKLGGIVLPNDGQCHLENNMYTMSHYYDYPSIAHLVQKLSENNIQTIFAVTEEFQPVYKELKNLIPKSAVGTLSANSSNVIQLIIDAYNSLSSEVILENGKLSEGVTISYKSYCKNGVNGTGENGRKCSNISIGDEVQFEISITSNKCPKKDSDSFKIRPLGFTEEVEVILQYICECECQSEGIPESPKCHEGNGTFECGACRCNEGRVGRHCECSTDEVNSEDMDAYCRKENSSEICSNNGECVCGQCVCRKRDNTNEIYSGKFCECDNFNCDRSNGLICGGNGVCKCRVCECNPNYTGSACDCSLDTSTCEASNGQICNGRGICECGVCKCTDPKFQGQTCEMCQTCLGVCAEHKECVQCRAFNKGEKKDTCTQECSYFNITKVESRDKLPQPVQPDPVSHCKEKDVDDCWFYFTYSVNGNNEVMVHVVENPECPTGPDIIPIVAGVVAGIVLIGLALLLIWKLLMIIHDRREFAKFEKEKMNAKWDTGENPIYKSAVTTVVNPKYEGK

[5] = biological target: human α5β1 integrin (human) (UniProt P08648); assay: FACS on human α5β1-transfected against untransfected 300.19 cells, negative control
[6] = biological target: Macaque α5β1 (Macaque); assay: FACS on macaque PBMC, isotype control
[7] = biological target: avb3 and avb5 integrins on A375M cells; assay: cell-based or functional assay
[8] = biological target: αv integrin chain on HT29 cells (human) (UniProt P06756); assay: FACS on HT29 cells, positive control
Chain of αv integrin chain on HT29 cells (human) (P06756 31-1048): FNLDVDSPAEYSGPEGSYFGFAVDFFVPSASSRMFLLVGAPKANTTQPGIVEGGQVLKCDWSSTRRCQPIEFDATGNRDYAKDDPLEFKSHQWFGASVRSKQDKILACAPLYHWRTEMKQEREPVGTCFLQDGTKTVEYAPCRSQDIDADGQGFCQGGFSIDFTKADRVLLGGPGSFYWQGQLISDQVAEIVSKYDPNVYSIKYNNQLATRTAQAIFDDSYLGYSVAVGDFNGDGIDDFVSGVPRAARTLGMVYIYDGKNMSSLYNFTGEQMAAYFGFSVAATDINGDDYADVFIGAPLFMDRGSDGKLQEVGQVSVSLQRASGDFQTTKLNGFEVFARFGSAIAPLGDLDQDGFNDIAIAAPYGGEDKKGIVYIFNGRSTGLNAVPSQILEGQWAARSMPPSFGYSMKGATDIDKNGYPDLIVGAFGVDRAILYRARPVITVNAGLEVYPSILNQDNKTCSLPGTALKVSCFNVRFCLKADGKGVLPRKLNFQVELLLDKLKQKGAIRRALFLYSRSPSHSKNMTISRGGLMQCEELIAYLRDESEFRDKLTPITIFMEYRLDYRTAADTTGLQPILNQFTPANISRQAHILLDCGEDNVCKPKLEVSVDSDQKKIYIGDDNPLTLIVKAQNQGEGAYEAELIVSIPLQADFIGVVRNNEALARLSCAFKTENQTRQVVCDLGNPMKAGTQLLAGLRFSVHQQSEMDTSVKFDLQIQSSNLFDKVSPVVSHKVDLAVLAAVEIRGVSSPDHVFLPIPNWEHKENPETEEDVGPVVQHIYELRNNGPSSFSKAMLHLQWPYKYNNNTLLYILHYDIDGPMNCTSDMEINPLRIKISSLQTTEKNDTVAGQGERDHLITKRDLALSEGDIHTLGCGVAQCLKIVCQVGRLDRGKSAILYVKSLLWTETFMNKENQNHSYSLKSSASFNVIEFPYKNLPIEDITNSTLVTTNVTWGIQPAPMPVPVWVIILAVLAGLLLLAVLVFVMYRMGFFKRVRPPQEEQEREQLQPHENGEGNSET

[9] = biological target: macaque αV integrin chain on T cells (Macaque); assay: FACS on macaque PBMC, control antibody
[10] = biological target: αvβ6 integrin on HT29 cells (human) (UniProt P06756); assay: FACS on HT29 cells, positive control
Chain of αvβ6 integrin on HT29 cells (human) (P06756 31-1048, chain 1 of 2): as the sequence (P06756 31-1048) above
Chain of αvβ6 integrin on HT29 cells (human) (P18564 22-788, chain 2 of 2, further chain): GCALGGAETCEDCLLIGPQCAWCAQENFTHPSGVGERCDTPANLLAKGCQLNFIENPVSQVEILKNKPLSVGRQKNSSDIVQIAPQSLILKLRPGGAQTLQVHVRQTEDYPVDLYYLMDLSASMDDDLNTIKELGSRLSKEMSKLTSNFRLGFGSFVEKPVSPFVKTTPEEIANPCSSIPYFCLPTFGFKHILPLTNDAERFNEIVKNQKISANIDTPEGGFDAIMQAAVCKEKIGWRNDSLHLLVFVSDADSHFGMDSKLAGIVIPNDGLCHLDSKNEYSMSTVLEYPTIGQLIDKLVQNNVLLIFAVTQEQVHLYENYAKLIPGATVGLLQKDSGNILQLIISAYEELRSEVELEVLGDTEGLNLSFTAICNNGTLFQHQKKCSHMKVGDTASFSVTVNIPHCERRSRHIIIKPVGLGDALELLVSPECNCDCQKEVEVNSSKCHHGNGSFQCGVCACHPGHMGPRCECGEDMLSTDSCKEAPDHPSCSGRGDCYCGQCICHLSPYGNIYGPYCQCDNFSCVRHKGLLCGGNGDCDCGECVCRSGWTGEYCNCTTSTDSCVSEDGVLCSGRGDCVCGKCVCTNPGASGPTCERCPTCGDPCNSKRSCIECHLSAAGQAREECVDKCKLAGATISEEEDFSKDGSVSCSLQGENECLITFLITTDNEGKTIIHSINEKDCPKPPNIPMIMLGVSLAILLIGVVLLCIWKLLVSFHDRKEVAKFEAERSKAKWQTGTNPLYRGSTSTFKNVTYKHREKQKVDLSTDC

[11] = biological target: β1 integrin chain on HT29 cells (α5 null line) (human) (UniProt P05556); assay: FACS on HT29 cells (no α5, β1 present), control antibody to α5β1

Chain of β1 integrin chain on HT29 cells (α5 null line) (human) (P05556 21-798): as the sequence (P05556 21-798, chain 2 of 2, further chain) above

Substance: 4b4 anti beta1 (antibody)
Binding Geomean [1]: 362
Geo Mean on Macaque T-cells IgG detection [2]: 141

Substance: Human IgG2 (antibody)
Binding Geomean [3]: 2.84
X Geo Mean [4]: 12
Ratio (α5β1 expressing cells / parental cells) [5]: 0.8

Substance: Human IgG2/4
Geo Mean on Macaque T-cells IgG detection [6]: 3

Substance: L230 (antibody)
Osteopontin Adhesion (% inhibition) at 5 ug/ml, A375M cells [7]: 97%
Vitronectin Adhesion (% inhibition) at 5 ug/ml, A375M cells [7]: 96%
Binding Geomean [8]: 294
Geo Mean on Macaque T-cells IgG detection [9]: 3

Substance: Mouse IgG1 (antibody)
Binding Geomean [3]: 2.55
Geo Mean on Macaque T-cells IgG detection [6]: 2
X Geo Mean [4]: 14.9
Ratio (α5β1 expressing cells / parental cells) [5]: 0.9

Substance: mAb 1969 (antibody)
Binding Geomean [11]: 2.69

More lines, now with the values ahead:

Binding Geomean [3]: 3.2
Substance: Human IgG4 (antibody)

Binding Geomean [10]: 39.2
Substance: MAB2077Z avb6 (antibody)

Binding Geomean [3]: 10.2
Substance: Mouse IgG2a (antibody)
